According to patent US12385058B2, “Herbicide tolerance protein, encoding gene thereof and use thereof” (Beijing Dabeinong Biotechnology Co., Ltd., priority 2018, dated 2025):

B1: ALT04M1: herbicide tolerant protein, SEQ ID NO: 55; ALT04 with glycine to alanine at position 131 (protein)
chain: MSKRKVVLAEQGSFYIGGRTVTGPGKFDPSKPVIPYSNEGATFYINQMYVNFQAPVRPRGLPLVFWHGGGLTGHIWESTPDGRPGFQTLFVQDRHTVYTIDQPGRGRGNIPTFNGPFGQLEEESIVNTVTANSSKEGAWVRDRLGPAPGQFFENSQFPRGYEDNYFKEMGFSPSISSDEIVDAVVKLVTHIGPCVLVTHSASGVLGMRVATHAKNVRGIVAYEPATSIFPKGKVPEIPPLADKKSQIFPPFEIQESYFKKLAKIPIQFVFGDNIPKNPKSAYWFLDWWRVTRYAHSLSLEAINKLGGQASLLDLPTAGLRGNTHFPFTDRNNVQVASLLSDFLGKHGLDQ
modifications: the amino acid sequence of the ALT04M1
B2: ALT02M1: herbicide tolerant protein, SEQ ID NO: 23; ALT02 with glycine to alanine at position 140 (protein)
chain: METDNVELAQSKRKVVLAEQGSFYIGGRTVTGPGKFDPSKPVIPYSNEGATFYINQMYVNFQAPVRPRGLPLVFWHGGGLTGHIWESTPDGRPGFQTLFVQDRHTVYTIDQPGRGRGNIPTFNGPFGQLEEESIVNTVTANSSKEGAWVRDRLGPAPGQFFENSQFPRGYEDNYFKEMGFSPSISSDEIVDAVVKLVTHIGPCVLVTHSASGVLGMRVATHAKNVRGIVAYEPATSIFPKGKVPEIPPLADKKSQIFPPFEIQESYFKKLAKIPIQFVFGDNIPKNPKSAYWFLDWWRVTRYAHSLSLEAINKLGGQASLLDLPTAGLRGNTHFPFTDRNNVQVASLLSDFLGKHGLDQNESKLAAALE
modifications: the amino acid sequence of ALT02M1
B3: ALT02M2: herbicide tolerant protein, SEQ ID NO: 27; ALT02 with serine to valine at position 142 (protein)
chain: METDNVELAQSKRKVVLAEQGSFYIGGRTVTGPGKFDPSKPVIPYSNEGATFYINQMYVNFQAPVRPRGLPLVFWHGGGLTGHIWESTPDGRPGFQTLFVQDRHTVYTIDQPGRGRGNIPTFNGPFGQLEEESIVNTVTGNVSKEGAWVRDRLGPAPGQFFENSQFPRGYEDNYFKEMGFSPSISSDEIVDAVVKLVTHIGPCVLVTHSASGVLGMRVATHAKNVRGIVAYEPATSIFPKGKVPEIPPLADKKSQIFPPFEIQESYFKKLAKIPIQFVFGDNIPKNPKSAYWFLDWWRVTRYAHSLSLEAINKLGGQASLLDLPTAGLRGNTHFPFTDRNNVQVASLLSDFLGKHGLDQNESKLAAALE
modifications: the amino acid sequence of the ALT02M2
B4: ALT02M3: herbicide tolerant protein, SEQ ID NO: 31; ALT02 mutated at positions 44, 45, 140, 142 and 146 (protein)
chain: METDNVELAQSKRKVVLAEQGSFYIGGRTVTGPGKFDPSKPVIRASNEGATFYINQMYVNFQAPVRPRGLPLVFWHGGGLTGHIWESTPDGRPGFQTLFVQDRHTVYTIDQPGRGRGNIPTFNGPFGQLEEESIVNTVTANVSKERAWVRDRLGPAPGQFFENSQFPRGYEDNYFKEMGFSPSISSDEIVDAVVKLVTHIGPCVLVTHSASGVLGMRVATHAKNVRGIVAYEPATSIFPKGKVPEIPPLADKKSQIFPPFEIQESYFKKLAKIPIQFVFGDNIPKNPKSAYWFLDWWRVTRYAHSLSLEAINKLGGQASLLDLPTAGLRGNTHFPFTDRNNVQVASLLSDFLGKHGLDQNESKLAAALE
modifications: the amino acid sequence of the ALT02M3
B5: ALT03M1: herbicide tolerant protein, SEQ ID NO: 39; ALT03 with glycine to alanine at position 140 (protein)
chain: METDNVELAQSKRKVVLAEQGSFYIGGRTVTGPGKFDPSKPVIPYSNEGATFYINQMYVNFQAPVRPRGLPLVFWHGGGLTGHIWESTPDGRPGFQTLFVQDRHTVYTIDQPGRGRGNIPTFNGPFGQLEEESIVNTVTANSSKEGAWVRDRLGPAPGQFFENSQFPRGYEDNYFKEMGFSPSISSDEIVDAVVKLVTHIGPCVLVTHSASGVLGMRVATHAKNVRGIVAYEPATSIFPKGKVPEIPPLADKKSQIFPPFEIQESYFKKLAKIPIQFVFGDNIPKNPKSAYWFLDWWRVTRYAHSLSLEAINKLGGQASLLDLPTAGLRGNTHFPFTDRNNVQVASLLSDFLGKHGLDQNES
modifications: the amino acid sequence of the ALT03M1
B6: ALT03M2: herbicide tolerant protein, SEQ ID NO: 43; ALT03 with serine to valine at position 142 (protein)
chain: METDNVELAQSKRKVVLAEQGSFYIGGRTVTGPGKFDPSKPVIPYSNEGATFYINQMYVNFQAPVRPRGLPLVFWHGGGLTGHIWESTPDGRPGFQTLFVQDRHTVYTIDQPGRGRGNIPTFNGPFGQLEEESIVNTVTGNVSKEGAWVRDRLGPAPGQFFENSQFPRGYEDNYFKEMGFSPSISSDEIVDAVVKLVTHIGPCVLVTHSASGVLGMRVATHAKNVRGIVAYEPATSIFPKGKVPEIPPLADKKSQIFPPFEIQESYFKKLAKIPIQFVFGDNIPKNPKSAYWFLDWWRVTRYAHSLSLEAINKLGGQASLLDLPTAGLRGNTHFPFTDRNNVQVASLLSDFLGKHGLDQNES
modifications: the amino acid sequence of the ALT03M2
B7: ALT03M3: herbicide tolerant protein, SEQ ID NO: 47; ALT03 mutated at positions 44, 45, 140, 142 and 146 (protein)
chain: METDNVELAQSKRKVVLAEQGSFYIGGRTVTGPGKFDPSKPVIRASNEGATFYINQMYVNFQAPVRPRGLPLVFWHGGGLTGHIWESTPDGRPGFQTLFVQDRHTVYTIDQPGRGRGNIPTFNGPFGQLEEESIVNTVTANVSKERAWVRDRLGPAPGQFFENSQFPRGYEDNYFKEMGFSPSISSDEIVDAVVKLVTHIGPCVLVTHSASGVLGMRVATHAKNVRGIVAYEPATSIFPKGKVPEIPPLADKKSQIFPPFEIQESYFKKLAKIPIQFVFGDNIPKNPKSAYWFLDWWRVTRYAHSLSLEAINKLGGQASLLDLPTAGLRGNTHFPFTDRNNVQVASLLSDFLGKHGLDQNES
modifications: The amino acid sequence of the ALT03M3

Tests used:
[1] = type: biochemical; conditions: for specific enzyme activity, bensulfuron-methyl / specific enzyme activity, chlorimuron-ethyl / specific enzyme activity, metsulfuron-methyl / specific enzyme activity, thifensulfuron-methyl / specific enzyme activity, tribenuron-methyl: 0.2 μg enzyme, 0.2 mM substrate, pH 7.0, 30° C., 20 min
Experimental: (§1) Each reaction was timed beginning with the addition of reactive enzyme, and was terminated with 1 mL of dichloromethane. The organic phase after delamination was dehydrated with anhydrous sodium sulfate.
(§2) The above dehydrated reaction solution was blown dry with nitrogen and filtered by adding 1 mL of methanol, and 20 μL of the filtrate was subjected to liquid chromatography-mass spectrometry (LC-MS). High performance liquid chromatography (HPLC) conditions were as follows: mobile phase being methanol:water (80:20, V/V), Zorbax XDB-C18 chromatographic column (3.5 μm, 2.1×50 mm, Agilent, USA), column temperature being room temperature, UV detector, with a detection wavelength of 255 nm, a sample injection volume of 20 μL, and a flow rate of 0.25 mL/min. The primary ion mass spectrometry conditions were as follows: ion detection mode being multi-reactive ion detection; ion polarity being negative ion; ionization mode being electrospray ionization; a capillary voltage of 4000 volts; a dry gas temperature of 330° C., a flow rate of 10 L/min, an atomizing gas pressure of 35 psi, a collision voltage of 135 volts; and a mass scan range of 300-500 m/z. The secondary ion mass spectrometry conditions were as follows: a collision voltage of 90 volts; a mass scanning range of 30-400 m/z, and other conditions being the same as those of the primary ion mass spectrometry. It was identified by LC-MS that the metabolite of thifensulfuron-methyl was thiophene sulfonic acid, and the metabolite of metsulfuron-methyl, chlorimuron-ethyl, bensulfuron-methyl, sulfometuron-methyl or tribenuron-methyl was its corresponding sulfonic acid. The amount of the generated thiophene sulfonic acid (metabolite) was detected using high performance liquid chromatography (HPLC).

[2] = Degradation of sulfometuron-methyl by purified herbicide tolerant proteins (enzymatic activity, HPLC); type: biochemical; conditions: 0.2 μg enzyme, 0.2 mM substrate, pH 7.0, 30° C., 20 min
Experimental: as §1, §2

| Molecule | efficiency of degrading bensulfuron-methyl, fold of ALT04 [1] | efficiency of degrading thifensulfuron-methyl, fold of ALT04 [1] | specific enzyme activity, bensulfuron-methyl [1] | specific enzyme activity, chlorimuron-ethyl [1] | specific enzyme activity, metsulfuron-methyl [1] | specific enzyme activity, thifensulfuron-methyl [1] | specific enzyme activity, tribenuron-methyl [1] | specific enzyme activity, sulfometuron-methyl [2] | efficiency of degrading bensulfuron-methyl, fold of ALT02 [1] | efficiency of degrading thifensulfuron-methyl, fold of ALT02 [1] | efficiency of degrading chlorimuron-ethyl, fold of ALT02 [1] | efficiency of degrading metsulfuron-methyl, fold of ALT02 [1] | efficiency of degrading bensulfuron-methyl, fold of ALT03 [1] | efficiency of degrading thifensulfuron-methyl, fold of ALT03 [1] | efficiency of degrading chlorimuron-ethyl, fold of ALT03 [1] | efficiency of degrading chlorimuron-ethyl, fold of ALT04 [1] | efficiency of degrading metsulfuron-methyl, fold of ALT03 [1] | efficiency of degrading metsulfuron-methyl, fold of ALT04 [1] |
| --- | --- | --- | --- | --- | --- | --- | --- | --- | --- | --- | --- | --- | --- | --- | --- | --- | --- | --- |
| B1 | 1.9 fold | 2.8 fold | 3.5 µmol/min/mg | 9.4 µmol/min/mg | 2.0 µmol/min/mg | 80.9 µmol/min/mg | 2.8 µmol/min/mg | 4.9 µmol/min/mg | – | – | – | – | – | – | – | – | – | – |
| B2 | – | – | 4.1 µmol/min/mg | 10.9 µmol/min/mg | 2.3 µmol/min/mg | 94.4 µmol/min/mg | 3.3 µmol/min/mg | 5.7 µmol/min/mg | 2.3 fold | 3.3 fold | – | – | – | – | – | – | – | – |
| B3 | – | – | 2.5 µmol/min/mg | 9.5 µmol/min/mg | 1.3 µmol/min/mg | 111.3 µmol/min/mg | 11.3 µmol/min/mg | 3.7 µmol/min/mg | 1.4 fold | 3.9 fold | – | – | – | – | – | – | – | – |
| B4 | – | – | 0.7 µmol/min/mg | 40.3 µmol/min/mg | 4.4 µmol/min/mg | 18.7 µmol/min/mg | 3.5 µmol/min/mg | 1.2 µmol/min/mg | – | – | 14.2 fold | 2.1 fold | – | – | – | – | – | – |
| B5 | – | – | 3.7 µmol/min/mg | 9.9 µmol/min/mg | 2.1 µmol/min/mg | 85.4 µmol/min/mg | 2.9 µmol/min/mg | 5.1 µmol/min/mg | – | – | – | – | 2.1 fold | 3.0 fold | – | – | – | – |
| B6 | – | – | 2.3 µmol/min/mg | 8.6 µmol/min/mg | 1.1 µmol/min/mg | 100.7 µmol/min/mg | 10.3 µmol/min/mg | 3.3 µmol/min/mg | – | – | – | – | 1.3 fold | 3.5 fold | – | – | – | – |
| B7 | – | – | 0.6 µmol/min/mg | 36.5 µmol/min/mg | 4.0 µmol/min/mg | 16.9 µmol/min/mg | 3.1 µmol/min/mg | 1.0 µmol/min/mg | – | – | – | – | – | – | 13.0 fold | 12.4 fold | 1.9 fold | 1.8 fold |
